Experimental data: US5670637, “Nucleic acid ligands” (NeXstar Pharmaceuticals, Inc.)

Molecular target: nerve growth factor (NGF) (UniProt P01139 P01139:122-241)
Test: filter
Settings: chain copies: 2

Chain of nerve growth factor (NGF) (P01139 122-241, one chain of several): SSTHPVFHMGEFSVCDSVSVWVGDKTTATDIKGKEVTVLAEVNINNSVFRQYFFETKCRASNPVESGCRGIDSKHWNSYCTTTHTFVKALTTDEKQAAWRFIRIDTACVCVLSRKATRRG

B1: hsngf.a (ssRNA)
RNA: GGGAGCUCAGAAUAAACGCUCAACUCAUGGAGCGCAAGACGAAUAGCUACAUAUUCGACAUGAGGCCCGGAUCCGGC
binding result: binds
